Measured values reported in the DeepSol protein solubility set.

Assay: soluble on expression in E. coli; label from the status in PepcDB or PDB records

Sequence | soluble on expression in E. coli
MAHHHHHHMSSLDSVREDILDVFHIFDEDGSGSITMQELKRAIYTITGIRISRIDLSILVRTCKEEMLKESARKSEAGANVAGKAGEKLWTPEPESEVNTVDPQLFAAVVLKTLNRRTQEQELLFTFRLLEDKDYPGFITKDSLKRASADIDEHLTDQEVNEMFDKLVTGVSAAAIDFVTFSSLMETLRKSI | soluble
MRNFDLSPLYRSAIGFDRLFNHLENNQSQSNGGYPPYNVELVDENHYRIAIAVAGFAESELEITAQDNLLVVKGAHADEQKERTYLYQGIAERNFERKFQLAENIHVRGANLVNGLLYIDLERVIPEAKKPRRIEINLEHHHHHH | soluble
SQFDILCKTPPKVLVRQFVERFERPSGEKIASCAAELTYLCWMITHNGTAIKRATFMSYNTIISNSLSFDIVNKSLQFKYKTQKATILEASLKKLIPAWEFTIIPYNGQKHQSDITDIVSSLQLQFESSEEADKGNSHSKKMLKALLSEGESIWEITEKILNSFEYTSRFTKTKTLYQFLFLATFINCGRFSDIKNVDPKSFKLVQNKYLGVIIQCLVTETKTSVSRHIYFFSARGRIDPLVYLDEFLRNSEPVLKRVNRTGNSSSNKQEYQLLKDNLVRSYNKALKKNAPYPIFAIKNGPKSHIGRHLMTSFLSMKGLTELTNVVGNFSDKRASAVARTTYTHQITAIPDHYFALVSRYYAYDPISKEMIALKDETNPIEEWQHIEQLKGSAEGSIRYPAWNGIISQEVLDYLSSYINRRIGHHHHHH | soluble
MGSTSSLYAAIDLGSNSFHMLVVREVAGSIQTLTRIKRKVRLAAGLNSENALSNEAMERGWQCLRLFAERLQDIPPSQIRVVATATLRLAVNAGDFIAKAQEILGCPVQVISGEEEARLIYQGVAHTTGGADQRLVVDIGGASTELVTGTGAQTTSLFSLSMGCVTWLERYFADRNLGQENFDAAEKAAREVLRPVADELRYHGWKVCVGASGTVQALQEIMMAQGMDERITLEKLQQLKQRAIHCGRLEELEIDGLTLERALVFPSGLAILIAIFTELNIQCMTLAGGALREGLVYGMLHLAVEQDIRSRTLRNIQRRFMIDIDQAQRVAKVAANFFDQVENEWHLEAISRDLLISACQLHEIGLSVDFKQAPQHAAYLVRNLDLPGFTPAQKKLLATLLLNQTNPVDLSSLHQQNAVPPRVAEQLCRLLRLAIIFASRRRDDLVPEMTLQANHELLTLTLPQGWLTQHPLGKEIIAQESQWQSYVHWPLEVH | soluble
GHHHHHHAIAENLYFQSKFLDVECLSELQRKLNDLELTDYRVRCQLEAYSCKPAGFDKKLSKSLEQKLVEQLEASPRVLEGSPVGSLEDQSARKTLINLICTLNAAHQDYDFSSLQLSRLKRVQDVRSLQQHVDSLFELFYRQLGLEFRQFLWENIGQIIRPEECEVYSYLPDYESDPYSASGALWSFCYFFYHKNMKKILFFSCTLSTRLAEDSESTESVDEEDFGKESSGLETPFAMFETVI | not soluble
MAEDYKLIDNEEKHRYEFQIDDKIAKIDYIKSNNGEIYLVHTEVPASLGGRGVGSQLAEKTLADIERQGLRLVPLCPFVAGYIHKHPEWKRIVMRGIHIK | not soluble
MAHHHHHHMQWKKDDLFEGLRKLPRTPGELFGHRNKLNFILQKRFFIAPDMVELALNRQNGEQFNRCYAKLVMQAVAKFNNTTRSQLKVRVDPRLPKGLQLIQPDDKDTGANLKSKKSEKAASGRLNAFSNTTSGQQRKPQQRQQSRYCSPQSGGVSPRVVMPIDPAERDCLYATYLRARTPQSGTPDYSDMMLQSPSCATDGKTTMFSEDGSSALRSATRRSAGDVHFATPPVFKGFERTLELTPADSPTESLPLHF | not soluble
MGSDKIHHHHHHMRAFVFPGQGSQYSGMAKDFSVYESSKEIFERSKKVLGFDITEIMNGDEETLKLTENAQPSIYITSYIAFLELEKRGILPDVVAGHSLGEYTALAVAGVYDFETGLYLVRKRGEYMSKALEPGKGTMAAVIGLNIETIEEVVNSIEGVYIANYNSHDQVVISGLKESVEKAMEILKEKGARRVVELMVSSPFHTPFLEYAREKMKEEVEKVDFKKPRWPIVMNSTAKPTENPEEIKRNIIEQITGPVLWKQSVDTMKKMGVTEFVEVGPKTVLKNLCRRMGANAKHFTEILSE | not soluble
YEKYRWSISRSGYLIILGRDASQNESIVKKYLRDKDIFLHADIIGAPATIIITQDNKTISEEDIYDAAVMAASYSKAWKVGLASVDIFWVLGNQVSKSPPSGEYLNK | not soluble
MAERKYFGTDGVRGKVGQFPITPDFALKLGWAAGKILATQGTKQVLIGKDTRISGYMLESALEAGLAAAGLSAAFVGPMPTPAVAYLTRTFRAEAGIVISASHNPYYDNGIKFFSANGEKLPDEVEEAIEALLDQPMDYVESDQLGKAIRINDAAGRYIEFCKGTFPADASLKGYKIVVDCAHGATYHIAPNVMRELGAEVIEIGTHPNGLNINDKCGATDISALQQAVLTSKADLGVAYDGDGDRIIMVDHLGNKVDGDQILFIIAREALRSGKLKGGVVGTLMSNMGLEIALKHLAIPFTRANVGDRYVLEQLKEKNWKLGGENSGHIIVLDKNTTGDGIIASLEVLAAMEAHKMSLNDLTHAVPLFPQVLLNVRFDGGNNPLENAAVKALAKDIETRLVGKGRILLRKSGTEPLIRVMVECEDAVLAQQYAEEIVSAIQNH | not soluble
MPSNIRESDASCLEMIRSIIRSTADDNSKWVEIFVDFENAQPTDEEREIYNMAEEVLNDCDLVLADVSSYGNGCYAERNQLKNDSDTQALKVLMTKLEPFVARTCSYYEHVAKIEKIVPIILWELSSGPLPLEEQLANKQSIAKQFARLIGFVLDFDVVKMRTAQITNDYSYYRRAKHIVYQDFEDQGVPELPQVQMFLCEGNPMLKALCNGVDSYMQTHQSLPINNTTDVFVTIINVCRFMLANDECLARLTDSSKHLCCRVMTGLVILFDHVDQNGAFVSNSSIDMRDVVRLIKLNTTPEQSDCLLAGLRFTTKHYNDSSTPKSLRHLIEVK | soluble
MERLDFSSIIRKDREEHKSKKFEGTFLEYLEIVKENPEITMLAHQRMYKLITEPGVTVIRTEENPRLRRIYGNDIIKKYKFFEDEFFGIDKTIMKIVRYFHSAAMAGEEARQVLYLVGPVGAGKSSLMEALKRALEMSPPIYALKGCPMREEPLHLVPKHLRKEFEEILNVRIEGDLCPICRYRLKNEYNGEYERFPVETVDFSIRSRKGIGVVPPVDPNNQDTSVLIGSVDISKIDLYPEDDPRVLSLNGAFNVGNRGIVEFIEVFKNETEYLHTMITATQEKSIPSPGKGSMIYFDGIILAHSNEAEWNKFKSDHTNEAILDRIVKIEVPYCLELNEEIKIYEKILRKSKFDAHIAPHTIEIAAMFAILTRLAPSNKVDPMTKLKIYNGEEIIEKGMTKKVDIFELKEEAPREGMTGISTRFIMKVLDTTLSESEHNCINPISVMETLVKSIKELSISEEERERYLRFVQDSIRKEYNKILEREITKAFIHGYKEQAESLFNNYLDHAEAFVNKSKIKDRNTGEELEPDEKFLRSIEEQIGITDTAAKGFRADVTAYMFYVLRNGGKLDYTSYEPLKEAIEKKLTSSVRELSRVITQAKVRDKEQSEKYDTMVQEMKNNGYCDHCCNVILKYAANNLWKD | soluble
MGSDKIHHHHHHDFLDRHPQGQFTEDDNPGALAEGKVFNIYTMMRNYNITAGIPAFAIEYFRSEDSEKGSTASDGADQAAMYDDFQYNASNGLIKAYWSQNYAVIYQCNDVIETIEKGNLTEENDLRNKGEALFFRAYCYFNLVRAFGEVPLVTFKVNDASEANVPKTTAEEIYKQIDSDLTQAEGLLPRQWQSAYLGRLTWGSARALHARTYMMRNDWQNMYTAATDVMNSGQYNLNTPYDVIFTDEGENSSESVFELQCASTAALPASDKIGSQFCEVQGVRGSGQWDLGWGWHMGTELMGEAFEPGDPRKDATLLYFRRSDTDPITPENTNKPYGESPVSQADGTYFNKKAYTNPALREEFTRHGFWVNIRIIRYGDVVLMAAESANELGKTGEASNYLEMVRARARGNNPDILPKVTSLDQTVLRDAIRHERRVELGLESGRFYDLVRWGIASQVLHAAGKTGYQPKNALLPLPQDEIDKSKGVLVQNPDY | not soluble
MIGLITTLYFVAKTAFIKLKVAVYKDKAKGSGNKNTIVIYSEGKRYWNVFLPICNEFEEHQKELVFYTSSEDDPVFEQHYTYVKPEYIGKGNKAFARLNMLEADICLMTTPGLDVYQLKRSKHVRHYSHILHALDDATSYRLFGLDYFDSVLLSGEYQVKGIRELESLRNLPPKNLRVVGCPYLDVLSEKIKNLPEKSSDFTVLIAPSWGASGILSKYGEQLITPLVETGWNIIIRPHPQSKTSEPDMLKRLEGKYKDVANFVWDYNSENIDSLSKADIMISDFSSVIFDYCFLFDKPFLYCNNEFDHRPYDSGDLKETPWKFSVLKEIGVELNSNSFDHIKEIISEACKSETLKENRLKAKDTAWQNRGCAGKAVYDFLTEIKTI | not soluble
MGSDKIHHHHHHMSESAIADFVSSFIPDTATHVEPVRGRVVMSKRRIVLAADDEKTTIPLNGVFDVQHETAPGDLARFFEDTVTIAYEHDEDRHVAVIEGGGSTVDRFVTLVFKALVHGTTVYAKHPARRGGRITDQPFEKGNLALSPGDLTITGDADTTIDLSTVSHFERVDREVNGSNKQLLSVRHMGSTGPITTELALSSGRKMNLLGRYIRLQYTHLKQELADVTLTSEEIEALVAIYSSGPNASLAAVLGVDASRVTMLLNDLIEKELVTDDDGIALTSLGRAAVSEHIEDVNL | not soluble
MSLRDGKHIRTKLTPQKDRGESSYRIGLYIRDSAAGIGTMTFVHPDSMKYGALGHVISDNDTKKPIQVEDGQIMRSTVTSIERGSHGNPGEKLARFSPDREVIGNITINSPFGIFGKLNTNMTNGVMDKAMPIALSHQVKEGPAKILTVIDQDKVEAFDIEVVSTVPQKFPATKGMVIKVTDKRLLAKTGGIVQGMSGSPIVQNGKVIGAVTHVFVNDPTSGYGVHIEWMLHEAGINIYDQERKASEGHHHHHH | soluble
MAQHTYDEESVQELLGWAKKMLETKNYPTEKYQVNACTSIIDGKLYLESLISMISKNWENPTFHPTIEQLWEYREKWEGQKE | not soluble
MSLSEELQQKLRDQLWEVANRLRGNMSASDFMYFTLGFIFYKYLSEKIEKYANNALADDDITFKELWETDDADAIELQEEAKNQCLENIGYFIEPQFLFSSVIEAIKRKENILPMLERSLKRIEDSTLGQDSEDDFGGLFSDIDLASPKLGKTADDKNTLVSNVLLALDDINFGLEASQEIDILGDAYEYMISQFAAGAGKKAGEFYTPQEVSRILAEIVAIGHQRLRNVYDPTCGSGSLLLRAASIGNAVDIYGQEKNPTTYNLARMNMLLHGIRFSNFKIENGDTLEWDAFGDTQFDAVVANPPFSAEWSAADKFNTDDRFSKAGRLAPRKTADYAFILHMIYHLNEGGTMACVAPHGVLFRGNAEGVIRRFLIEKKNYVDAIIGLPANIFYGTSIPTCILVFKKCRKEDDNILFIDASKEFEKVKTQNKLREQHIQKIVETYRDRKEIEKYSHLASLQEIAENDYNLNIPRYVDTFEEEEPIDIKAVMAEIKELEAKRAELDKEIEVYLKELGIVEEGHHHHHH | soluble
GSEDFTFDGTKRLSVNYVKGILQPTDTCDIWDKIWNFQAKPDDLLISTYPKAGTTWTQEIVELIQNEGDVEKSKRAPTHQRFPFLEMKIPSLGSGLEQAHAMPSPRILKTHLPFHLLPPSLLEKNCKIIYVARNPKDNMVSYYHFQRMNKALPAPGTWEEYFETFLAGKVCWGSWHEHVKGWWEAKDKHRILYLFYEDMKKNPKHEIQKLAEFIGKKLDDKVLDKIVHYTSFDVMKQNPMANYSSIPAEIMDHSISPFMRKGAVGDWKKHFTVAQNERFDEDYKKKMTDTRLTFHFQF | soluble
